Measurements: patent publication US20220023399A1, “BLOOD COMPONENT POTENTIATION OF LYTIC PROTEIN ANTI-BACTERIAL ACTIVITY AND METHODS AND USES THEREOF” (priority 2017, published 2022)

Experiments:
[1] = test system: staphylococci (strain not given); experiment: Checkerboard analysis of PlySs2/CF-301 with AMPs, antimicrobial proteins and albumins in heat-inactivated human serum; assay type: cell-based, S. aureus; settings: in combination with PlySs2/CF-301
[2] = test system: S. aureus strain ATCC 700699; experiment: Confocal/deconvolution microscopy of cell surface binding; settings: 0.25×MIC
[3] = test system: S. aureus strain MW2; experiment: Fluorescence microscopy of binding after preincubation in different serum types; settings: 0.25×MIC
Description: The effect of preincubation of staphylococci with multiple different serum types and MHB on subsequent labeling with a 0.25×MIC amount of CF-301^RHD was also examined by fluorescence microscopy (FIG. 11).
Fluorescence microscopy: Binding of PlySs2 (CF-301) to the Bacterial Cell Surface in Different Serum Environments. Mid-log phase MRSA strain MW2 was suspended at 1×10^7 CFU/mL in either CAMHB or 100% serum from either human (Sigma-Aldrich), rabbit (Gibco), rat (BioreclamationIVT), or mouse (BioreclamationIVT) sources and incubated for 30 minutes at 37° C. An additional mouse serum sample was also tested, containing 40 mg/mL HSA (Albumin Biosciences). After the preincubation, bacteria were washed with 1× phosphate-buffered saline (PBS) and resuspended in 50 μl of PBS and attached to the surface of a poly-L-lysine-coated cover glass. The cells were washed and treated with CF-301^RHOD (2 μg/mL in PBS) for 10 minutes before washing and counterstaining with DAPI. Slides were mounted in 50% glycerol and 0.1% p-phenylenediamine in PBS, pH 8. Fluorescence microscopy was performed using a Nikon Eclipse E400 microscope, equipped with a Nikon 100×/1.25 oil immersion lens, and a Retiga EXi fast 1394 camera (QImaging). QCapture Pro version 5.1.1.14 software (QImaging) was used for image capture and processing.

[4] = test system: S. aureus (strain not given); experiment: MIC analysis of various lysins, chimeric lysins and antibiotics in MHB and human serum; assay type: cell-based; settings: Table 14 (Example 2); for Fold decrease in MIC: human serum vs MHB
Description: To further evaluate the binding domain relevance to the serum component effect, various chimerics were constructed by replacing or swapping out one binding domain for another. Chimeric lysins having the Sal1 CHAP catalytic domain with ClyS binding domain, PlySs2 (CF-301) binding domain, or lysostaphin binding domain were assayed for MIC using MHB versus human serum. the results are depicted below in TABLE 14.

[5] = test system: S. aureus (strain not given); experiment: as above; assay type: cell-based; settings: Table 2; for Fold decrease in MIC: human serum vs MHB

B1: Serum albumin (Rat, from serum): rat serum albumin (protein, UniProt P02770 25-608, looked up)
Albumin: EAHKSEIAHRFKDLGEQHFKGLVLIAFSQYLQKCPYEEHIKLVQEVTDFAKTCVADENAENCDKSIHTLFGDKLCAIPKLRDNYGELADCCAKQEPERNECFLQHKDDNPNLPPFQRPEAEAMCTSFQENPTSFLGHYLHEVARRHPYFYAPELLYYAEKYNEVLTQCCTESDKAACLTPKLDAVKEKALVAAVRQRMKCSSMQRFGERAFKAWAVARMSQRFPNAEFAEITKLATDVTKINKECCHGDLLECADDRAELAKYMCENQATISSKLQACCDKPVLQKSQCLAEIEHDNIPADLPSIAADFVEDKEVCKNYAEAKDVFLGTFLYEYSRRHPDYSVSLLLRLAKKYEATLEKCCAEGDPPACYGTVLAEFQPLVEEPKNLVKTNCELYEKLGEYGFQNAVLVRYTQKAPQVSTPTLVEAARNLGRVGTKCCTLPEAQRLPCVEDYLSAILNRLCVLHEKTPVSEKVTKCCSGSLVERRPCFSALTVDETYVPKEFKAETFTFHSDICTLPDKEKQIKKQTALAELVKHKPKATEDQLKTVMGDFAQFVDKCCKAADKDNCFATEGPNLVARSKEALA
ΣFICavg [1]: ≥1.16

B2: CF-301^RHD: rhodamine-labeled PlySs2 (CF-301) (conjugate)
chain: MTTVNEALNNVRAQVGSGVSVGNGECYALASWYERMISPDATVGLGAGVGWVSGAIGDTISAKNIGSSYNWQANGWTVSTSGPFKAGQIVTLGATPGNPYGHVVIVEAVDGDRLTILEQNYGGKRYPVRNYYSAASYRQQVVHYITPPGTVAQSAPNLAGSRSYRETGTMTVTVDALNVRRAPNTSGEIVAVYKRGESFDYDTVIIDVNGYVWVSYIGGSGKRNYVATGATKDGKRFGNAWGTFK
labeling of the staphylococcal cell wall ([2]; absence of the HSA pretreatment): no labeling was observed
labeling of the staphylococcal cell wall ([2]; cells pretreated with HSA at 40 mg/mL): extensive labeling
labeling of S. aureus strain MW2 ([3]; mouse serum supplemented with HSA): restore high-level binding and fluorescence
labeling of S. aureus strain MW2 ([3]; preincubation with human serum or rabbit serum): extensive labeling
labeling of S. aureus strain MW2 ([3]; preincubation with rat serum, mouse serum or MHB alone): poorly labeled cells

B3: Sal1: anti-staphylococcal lysin, SEQ ID NO:5 (protein)
chain: MAKTQAEINKRLDAYAKGTVDSPYRIKKATSYDPSFGVMEAGAIDADGYYHAQCQDLITDYVLWLTDNKVRTWGNAKDQIKQSYGTGFKIHENKPSTVPKKGWIAVFTSGSYQQWGHIGIVYDGGNTSTFTILEQNWNGYANKKPTKRVDNYYGLTHFIEIPVKAGTTVKKETAKKSASKTPAPKKKATLKVSKNHINYTMDKRGKKPEGMVIHNDAGRSSGQQYENSLANAGYARYANGIAHYYGSEGYVWEAIDAKNQIAWHTGDGTGANSGNFRFAGIEVCQSMSASDAQFLKNEQAVFQFTAEKFKEWGLTPNRKTVRLHMEFVPTACPHRSMVLHTGFNPVTQGRPSQAIMNKLKDYFIKQIKNYMDKGTSSSTVVKDGKTSSASTPATRPVTGSWKKNQYGTWYKPENATFVNGNQPIVTRIGSPFLNAPVGGNLPAGATIVYDEVCIQAGHIWIGYNAYNGNRVYCPVRTCQGVPPNHIPGVAWGVFK
modifications: Staphylococcus
Minimal inhibitory concentration, MHB [4]: 2 mg/L
Fold decrease in MIC [4]: 32
Minimal inhibitory concentration, Human serum [4]: 0.06 mg/L
Minimal inhibitory concentration, MHB [5]: 2 mg/L
Fold decrease in MIC [5]: 32
Minimal inhibitory concentration, Human serum [5]: 0.06 mg/L

B4: ClyS: chimeric lysin active against Staphylococci, without SH3-type binding domain; SEQ ID NO:4 (protein)
chain: METLKQAESYIKSKVNTGTDFDGLYGYQCMDLAVDYIYHVTDGKIRMWGNAKDAINNSFGGTATVYKNYPAFRPKYGDVVVWTTGNFATYGHIAIVTNPDPYGDLQYVTVLEQNWNGNGIYKTELATIRTHDYTGITHFIRPNFATESSVKKKDTKKKPKPSNRDGLNKDKIVYDRTNINYNMVLQGKSASKITVGSKAPYNLKWSKGAYFNAKIDGLGATSATRYGDNRTNYRFDVGQAVYAPGTLIYVFEIIDGWCRIYWNNHNEWIWHERLIVKEVF
modifications: Staphlyococcus
Minimal inhibitory concentration, MHB [4]: 8 mg/L
Fold decrease in MIC [4]: 2
Minimal inhibitory concentration, Human serum [4]: 4 mg/L
Minimal inhibitory concentration, MHB [5]: 8 mg/L
Fold decrease in MIC [5]: 2
Minimal inhibitory concentration, Human serum [5]: 4 mg/L

B5: Lactoferrin (Human milk): lactoferrin, human milk (Sigma-Aldrich) (protein, UniProt P02788 20-710, looked up)
Lactotransferrin: GRRRSVQWCAVSQPEATKCFQWQRNMRKVRGPPVSCIKRDSPIQCIQAIAENRADAVTLDGGFIYEAGLAPYKLRPVAAEVYGTERQPRTHYYAVAVVKKGGSFQLNELQGLKSCHTGLRRTAGWNVPIGTLRPFLNWTGPPEPIEAAVARFFSASCVPGADKGQFPNLCRLCAGTGENKCAFSSQEPYFSYSGAFKCLRDGAGDVAFIRESTVFEDLSDEAERDEYELLCPDNTRKPVDKFKDCHLARVPSHAVVARSVNGKEDAIWNLLRQAQEKFGKDKSPKFQLFGSPSGQKDLLFKDSAIGFSRVPPRIDSGLYLGSGYFTAIQNLRKSEEEVAARRARVVWCAVGEQELRKCNQWSGLSEGSVTCSSASTTEDCIALVLKGEADAMSLDGGYVYTAGKCGLVPVLAENYKSQQSSDPDPNCVDRPVEGYLAVAVVRRSDTSLTWNSVKGKKSCHTAVDRTAGWNIPMGLLFNQTGSCKFDEYFSQSCAPGSDPRSNLCALCIGDEQGENKCVPNSNERYYGYTGAFRCLAENAGDVAFVKDVTVLQNTDGNNNEAWAKDLKLADFALLCLDGKRKPVTEARSCHLAMAPNHAVVSRMDKVERLKQVLLHQQAKFGRNGSDCPDKFCLFQSETKNLLFNDNTECLARLHGKTTYEKYLGPQYVAGITNLKKCSTSPLLEACEFLRK
ΣFICavg [1]: ≥1.16

B6: Lysozyme (Human, recombinant): human lysozyme, recombinant expressed in rice (protein, UniProt P61626 19-148, looked up)
Lysozyme C: KVFERCELARTLKRLGMDGYRGISLANWMCLAKWESGYNTRATNYNAGDRSTDYGIFQINSRYWCNDGKTPGAVNACHLSCSALLQDNIADAVACAKRVVRDPQGIRAWVAWRNRCQNRDVRQYVQGCGV
ΣFICavg [1]: ≤0.05

B7: Lysozyme (Human neutrophil derived): lysozyme, human neutrophil-derived (protein, UniProt P61626 19-148, looked up)
Lysozyme C: B6 Lysozyme C
ΣFICavg [1]: ≤0.056

B8: Lactoferrin (Bovine colostrum): lactoferrin, bovine colostrum (Sigma-Aldrich) (protein, UniProt P24627 20-708, looked up)
Lactotransferrin: APRKNVRWCTISQPEWFKCRRWQWRMKKLGAPSITCVRRAFALECIRAIAEKKADAVTLDGGMVFEAGRDPYKLRPVAAEIYGTKESPQTHYYAVAVVKKGSNFQLDQLQGRKSCHTGLGRSAGWIIPMGILRPYLSWTESLEPLQGAVAKFFSASCVPCIDRQAYPNLCQLCKGEGENQCACSSREPYFGYSGAFKCLQDGAGDVAFVKETTVFENLPEKADRDQYELLCLNNSRAPVDAFKECHLAQVPSHAVVARSVDGKEDLIWKLLSKAQEKFGKNKSRSFQLFGSPPGQRDLLFKDSALGFLRIPSKVDSALYLGSRYLTTLKNLRETAEEVKARYTRVVWCAVGPEEQKKCQQWSQQSGQNVTCATASTTDDCIVLVLKGEADALNLDGGYIYTAGKCGLVPVLAENRKSSKHSSLDCVLRPTEGYLAVAVVKKANEGLTWNSLKDKKSCHTAVDRTAGWNIPMGLIVNQTGSCAFDEFFSQSCAPGADPKSRLCALCAGDDQGLDKCVPNSKEKYYGYTGAFRCLAEDVGDVAFVKNDTVWENTNGESTADWAKNLNREDFRLLCLDGTRKPVTEAQSCHLAVAPNHAVVSRSDRAAHVKQVLLHQQALFGKNGKNCPDKFCLFKSETKNLLFNDNTECLAKLGGRPTYEEYLGTEYVTAIANLKKCSTSPLLEACAFLTR
ΣFICavg [1]: ≥1.16
